Data on five molecules can be found in patent US8969081B2, “Caudal motor neuron derived from embryonic stem cells under conditions essentially free of any retinoid” (The Trustees of Columbia University in the City of New York, priority 2008, dated 2015).

Assay [1] relates to differentiating ES cells / ES-MNs. Description: Rostro-caudal patterning of differentiating ES cells (Hox / positional marker immunostaining). The class given is cell-based, mouse. To be noted: for Rostro-caudal positional marker expression / segmental identity: EBs supplemented on Day 3, markers examined two to four days later; for Rostro-caudal identity of MNs after FGF2 (Hoxd9): 100 ng/ml on day 3. On the procedure: (§1) Differentiation of cervical level motor neurons from mouse ES cells was performed as previously described (Wichterle et al., 2002). For differentiation of caudal brachial level MNs from ES cells, ES cells were grown in ES cell medium for two days, dissociated and plated into non-adherent tissue culture dishes using ADFNK medium at a density of 20,000 cells/ml. Medium is changed each day but not on Day 3 and Day 4 of differentiation (three and four days after dissociation of ES cells and plating into differentiation medium, respectively). Addition of any factors to differentiating embryonic bodies (EBs) was performed on Day 3. These included: 1 μg/ml Dickopf-1 Dkk1 (R&D Systems), FGF Receptor Inhibitor (PD173074, 100 nM final concentration), FGFb (Recombinant Human, FTF-basic, 120-17, PeproTech), rhGdf11 (R&D Systems, Cat#1958-GD). GDNF (10 ng/ml, R&D Systems) was supplemented on Day 5 of differentiation in selected cultures.
(§2) For immunocytochemical analysis, embryonic bodies (EBs) were dissociated using 0.05% Trypsin-EDTA on Day 6 and plated at low densities on laminin coated coverslips using ADFNB medium supplemented with 10 ng/ml Glial cell-derived neurotrophic factor (GDNF). For quantification of MN subtypes, EBs were collected on Day 6 and dissociated using 0.05 Trypsin-EDTA. Dissociated cells were plated on laminin coated coverslips using ADFNB medium (DMEM/F12, Neurobasal, 1 ml B27 50× supplement and optional 5 ng/ml of GDNF to enhance survival of MN cultures) and fixed with 4% PFA one day later.
(§3) Immunocytochemistry on ES cell-derived MNs and EBs was performed as previously described (Wichterle et al., 2002). Antibodies against the following proteins were used in the analysis during this study: Otx2, Hoxa5, Hoxc8, Hoxc6, Hoxc9, Hoxd9, Hoxd10, Foxp1, Lhx3, Pea3, Scip, NeuN, dsRed, NF.
For each experiment, 10 distinct randomized image fields were taken using a confocal microscope LSM Zeiss Meta 510. Expression of all markers used for quantifications was gated to GFP positive cells, ES cell-derived spinal MNs. Images were analyzed for the expression of the above stated markers in the context of the ES cell-derived caudal brachial MNs. Each quantification is the result of at least three independent experiments (three independent differentiation experiments).
All experiments were performed with HBG3 ES cell line harboring Hb9-GFP transgene (Wichterle et al., 2002) and key experiments were confirmed using a control MM13 ES cell line. Differentiation of HBG3 ES cell line under RA/Hh conditions into rostral cervical MNs was performed as previously described (Wichterle et al., 2002; Wichterle and Peljto, 2008). For production of cervical MNs, ES cells were plated at 50,000 cells/ml in ADFNK differentiation medium [Advanced D-MEM/F-12 (Invitrogen): Neurobasal medium (Invitrogen) (1:1), 10% Knockout Serum Replacement (Invitrogen), […] L-Glutamine (Invitrogen), 0.1 mM β-mercaptoethanol (Sigma), and Pen/Strep (Invitrogen)]. Medium was completely changed on days 1, 2 and of differentiation. EBs were split 1:4 on day 2 of differentiation and the medium was supplemented with 1 μM all-trans retinoic acid (RA, Sigma) and Hh agonist (0.5 μM SAG, Calbiochem or 1 μM HhAg1.3, (Frank-Kamenetsky et al., 2002)). To generate caudal brachial level MNs from ES cells under FGF/Hh conditions, ES cells were plated into non-adherent tissue culture dishes in ADFNK medium (˜20,000 cells/ml). Embryoid bodies (EBs) were split 1:4 on day 2 of differentiation and the medium was changed on days 1, 2 and 5. Selected cultures were supplemented with the following reagents: 10 nM-1 μM RA, 10 nM-1 μM Hh Agonist, 1 μg/ml recombinant mouse Dickkopf-1 (R&D Systems), 50-100 nM FGF/VEGF Receptor Tyrosine Kinase Inhibitor (PD173074, Calbiochem) (Mohammadi et al., 1998), 100-625 ng/ml recombinant human bFGF (PeproTech), 20 ng/ml recombinant human Gdf11/Bmp11 (R&D Systems), 10 ng/ml recombinant rat GDNF (R&D Systems). […]

The next assay has as its system ES-MNs. Description: Motor pool identity of ES-MNs (Pea3, Scip) in response to GDNF. The class given is cell-based, mouse. The method, then:
as §1, §2, §3
All experiments were performed with HBG3 ES cell line harboring Hb9-GFP transgene (Wichterle et al., 2002) and key experiments were confirmed using a control MM13 ES cell line. Differentiation of HBG3 ES cell line under RA/Hh conditions into rostral cervical MNs was performed as previously described (Wichterle et al., 2002; Wichterle and Peljto, 2008). For production of cervical MNs, ES cells were plated at 50,000 cells/ml in ADFNK differentiation medium [Advanced D-MEM/F-12 (Invitrogen): Neurobasal medium (Invitrogen) (1:1), 10% Knockout Serum Replacement (Invitrogen), […] L-Glutamine (Invitrogen), 0.1 mM β-mercaptoethanol (Sigma), and Pen/Strep (Invitrogen)]. Medium was completely changed on days 1, 2 and of differentiation. EBs were split 1:4 on day 2 of differentiation and the medium was supplemented with 1 μM all-trans retinoic acid (RA, Sigma) and Hh agonist (0.5 μM SAG, Calbiochem or 1 μM HhAg1.3, (Frank-Kamenetsky et al., 2002)). To generate caudal brachial level MNs from ES cells under FGF/Hh conditions, ES cells were plated into non-adherent tissue culture dishes in ADFNK medium (˜20,000 cells/ml). Embryoid bodies (EBs) were split 1:4 on day 2 of differentiation and the medium was changed on days 1, 2 and 5. Selected cultures were supplemented with the following reagents: 10 nM-1 μM RA, 10 nM-1 μM Hh Agonist, 1 μg/ml recombinant mouse Dickkopf-1 (R&D Systems), 50-100 nM FGF/VEGF Receptor Tyrosine Kinase Inhibitor (PD173074, Calbiochem) (Mohammadi et al., 1998), 100-625 ng/ml recombinant human bFGF (PeproTech), 20 ng/ml recombinant human Gdf11/Bmp11 (R&D Systems), 10 ng/ml recombinant rat GDNF (R&D Systems).
For immunocytochemical analysis, EBs were dissociated using 0.05% Trypsin-EDTA (Invitrogen) on day 6 and plated at low density on coverslips (Carolina Biological) first coated with 0.001% solution of poly-1-ornithine (Sigma; diluted in water) and then with mouse laminin ([…] final concentration in PBS; Invitrogen). Cultures were plated and maintained using ADFNB culture medium [Advanced D-MEM/F12:Neurobasal (1:1), 1× B27 supplement (Invitrogen), […] L-Glutamine, and 1× Pen/Strep]. […]

The mark [2] stands for this setting: Example 1, 1 μg/ml on Day 3 of differentiation.

Entries after “also recorded” stand apart in the source; their conditions may differ.

Turning to `CCN(CC)CCCCNc1ncc2cc(-c3cc(OC)cc(OC)c3)c(NC(=O)NC(C)(C)C)nc2n1` [PD173074, reference compound], the “Hoxc8+ cells” value in assay [1] (Example 1, 100 nM on Day 3 of differentiation) is “complete loss of Hoxc8+ cells”. Further, the “Specification of Hoxc8+ ES-MNs” value in assay [1] (Example 2, 50 nM on day 3 of differentiation (FIG. 22H)) is “generation of ES-MNs that expressed Hoxa5 but lacked Hoxc8 expression; also recorded: selectively prevented specification of caudal brachial Hoxc8^+ ES-MNs”.
“FGF-2: basic fibroblast growth factor, recombinant human bFGF”: the “Rostro-caudal positional marker expression / segmental identity” value in assay [1] (Example 1) is “induced predominantly thoracic identity marked by Hoxd9 expression”. In addition, the “Induction of brachial or thoracic markers by FGF-2” value in assay [1] (Example 1, in the presence of RA) is on record as “not sufficient to induce expression of brachial or thoracic markers”. Besides, the “Rostro-caudal identity of MNs after FGF2 (Hoxd9)” value in assay [1] (Example 2, stained day 7, listed as FGF) is “significant increase in Hoxd9 expressing cells”; in assay [1] (Example 2, stained day 7, listed as FGF2) it was “Hoxd9^+ thoracic; also recorded: increase in the number of Hoxd9^+ MNs”. In addition, the “Specification of Hoxc8+ ES-MNs by FGF2 added to RA/Hh” value in assay [1] (up to 625 ng/ml FGF2 added to 1 μM RA/Hh differentiation condition) is given as “did not result in the specification of Hoxc8^+ ES-MNs”.

B1: Dkk1: Wnt antagonist, recombinant mouse Dickkopf-1 (protein, UniProt O54908 32-272, looked up)
Dickkopf-related protein 1: TLNSVLINSNAIKNLPPPLGGAGGQPGSAVSVAPGVLYEGGNKYQTLDNYQPYPCAEDEECGSDEYCSSPSRGAAGVGGVQICLACRKRRKRCMRHAMCCPGNYCKNGICMPSDHSHFPRGEIEESIIENLGNDHNAAAGDGYPRRTTLTSKIYHTKGQEGSVCLRSSDCAAGLCCARHFWSKICKPVLKEGQVCTKHKRKGSHGLEIFQRCYCGEGLACRIQKDHHQASNSSRLHTCQRH
With B1, in assay [1] (setting [2]), the “Neural specification (NeuN)” value was “did not interfere with neural specification”; the “Otx2 expression (rostral neural identity)” value is reported as “induction of Otx2 expression”; the “Spinal identity (Hoxa5, Hoxc8, Hoxd9, Hoxd10 expression)” value is “lost their spinal identity”. In assay [1] (Example 2, 1 μg/ml on day 2, Otx2 on day 5), the “Otx2+ forebrain/midbrain neural cells” value is recorded as “appearance of Otx2^+ forebrain/midbrain neural cells”. The “Specification of spinal cells (Hox and MN markers)” value in assay [1] (Example 2, 1 μg/ml on day 2 of differentiation) was “lacked spinal character; also recorded: prevented specification of spinal cells”.

B2: Gdf11: Growth differentiation factor 11, recombinant human Gdf11/Bmp11 (protein, UniProt O95390 299-407, looked up)
Growth/differentiation factor …: NLGLDCDEHSSESRCCRYPLTVDFEAFGWDWIIAPKRYKANYCSGQCEYMFMQKYPHTHLVQQANPRGSAGPCCTPTKMSPINMLYFNDKQQIIYGKIPGMVVDRCGCS
As for B2, the “Rostro-caudal positional marker expression / segmental identity” value in assay [1] (Example 1) is reported as “emergence of even more caudal Hoxd10 positive lumbar nerve cells”. Besides, in assay [1] (Example 2, 20 ng/ml on day 3, stained day 7), the “Rostro-caudal identity of MNs after Gdf11 (Hoxd10)” value was “Hoxd10^+ lumbar; also recorded: specification of MNs expressing Hoxd10; also recorded: significant increase in Hoxd10 expressing ES-MNs”.

B3: GDNF: glial cell line-derived neurotrophic factor, recombinant rat GDNF (protein, UniProt Q07731 78-211, looked up)
Glial cell line-derived …: SPDKQAAALPRRERNRQAAAASPENSRGKGRRGQRGKNRGCVLTAIHLNVTDLGLGYETKEELIFRYCSGSCEAAETMYDKILKNLSRSRRLTSDKVGQACCRPVAFDDDLSFLDDSLVYHILRKHSAKRCGCI
B3: in the assay on ES-MNs (GDNF 10 ng/ml on day 5), the “Pea3+ ES-MNs expressing Isl1” value is listed as around 90% and the “Pea3+ ES-MNs expressing Lhx1” value is on record as around 10%. In addition, in the assay on ES-MNs (brachial MNs), the “Percentage of Scip+ MNs, presence versus absence of GDNF” value was “not significantly different”. Also, the “LMC (FoxP1+) MNs expressing Pea3” value with ES-MNs (caudal brachial ES-MNs, 10 ng/ml GDNF on day 5) is given as around 20%. The “Pea3 expression in cervical (RA/Hh differentiated) MNs treated with GDNF” value in the assay on ES-MNs (cervical ES-MNs) is reported as “no Pea3 expressing MNs were detected; also recorded: not sufficient to induce Pea3 expression; also recorded: do not acquire expression of Pea3”. The “Scip+ FoxP1+ ES-MNs” value with ES-MNs (presence or absence of GDNF) is around 10%.
